Patent US20240294624A1, “ANTI-ERYTHROPOIETIN ANTIBODY” (ANDREMACON S.R.L., priority 2021, published 2024)

Key:
[1] = target: T1, murine EPO (mEPO) (Mus musculus, UniProt P07321); experiment: SPR binding kinetics; conditions: m-EPO
T1 sequence (P07321 27-192): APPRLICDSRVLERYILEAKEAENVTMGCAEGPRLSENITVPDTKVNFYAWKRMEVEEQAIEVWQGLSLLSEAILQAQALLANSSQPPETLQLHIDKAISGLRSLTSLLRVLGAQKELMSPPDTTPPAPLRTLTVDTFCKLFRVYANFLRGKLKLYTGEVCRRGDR
Protocol: FIG. 26A SPR technology can allow to determine the plasma and tissue concentrations of antibody, on the basis of an appropriate calibration curve. FIG. 26B Blood samples were collected from the retroorbital plexus under isoflurane anesthesia at 4, 24, 48, 72, 120, and 168 h from treatment.
SPR is a technology widely used to study in real time the interaction between two unlabeled molecules, one (the “ligand”) immobilized on a sensor chip, and the other (the “analyte”) flowing through a microfluidic system over the chip surface. Binding is measured in real time as a change in the refractive index on the surface. The most common application of SPR is to determine the association/dissociation binding constants for biomolecular interactions, but its versatility allows many other uses, including label-free immunoassays and concentration determination of biologics.
The study was carried out using an up-to-date SPR apparatus, the ProteOn XPR36 Protein Interaction Array system (Bio-Rad Laboratories). This system is mainly characterized by the presence of six flow channels which can uniformly immobilize up to six ligands on parallel strips of the same sensor surface.
In addition, SPR analysis was performed for anti-EPO (C4) to evaluate the binding kinetics parameters.

[2] = test system: S-ECs; experiment: Tube formation assay on Matrigel; assay type: cell-based, human; conditions: 48 h
Protocol: S-ECs (1×10^4) were plated on 10 μL of Matrigel in BM, as a Control Condition (CTR, FIG. 19A) or in media containing the anti-EPO (C4) (FIG. 19B), FTY720 (FIG. 19C), and anti-EPO (C4)+FTY720 (FIG. 19D) treatments, as reported above. S-ECs were incubated at 37° C., 5% C02, 5% 02. After 48 h, tube-like structure formation was evaluated by phase-contrast microscopy. […] Data are expressed as the mean±standard deviation of at least 3 experiments in triplicate. * P<0.05 versus CTR for treatments tested.

[3] = test system: A2780; experiment: MTT cell viability assay; assay type: cell-based, human; conditions: 96 hours, 6 μg/ml
Text: I. Ovarian cancer cell line (A2780); ovarian cancer cells used in toxicity testing, drug screening and genetic cancer studies.

[4] = test system: GBM-CSC cell line; experiment: MTT cell viability assay; assay type: cell-based, human; conditions: 96 hours, anti-EPO (C4) 6 μg/ml, TMZ 100 μM, FTY720 100 nM
Protocol: C. Glioblastoma cancer stem cell commercial line (Glioblastoma stem cell line, GBM-CSCs). Anti-EPO treatments were performed on GBM-CSCs, a commercial glioblastoma cancer cell line by CelProgen. As reported in the datasheet, GBM-CSCs have been isolated from human brain cancer tissue. GBM-CSCs were maintained in Celprogen's human glioblastoma cancer stem cell (GBM) complete growth medium and subcultured every 24 to 48 hours on a specific extra-cellular matrix.

[5] = test system: GECs; experiment: Caspase Glo 3/7 assay; assay type: cell-based, human
Protocol: (§1) Furthermore, cellular models were treated the above-mentioned pharmacological drugs and apoptotic effect was evaluated by caspase activity.
(§2) Data are expressed as the mean±standard deviation of at least 3 experiments in triplicate. *P<0.05 versus CTR for all treatments tested.

[6] = test system: PC-3; experiment: Caspase Glo 3/7 assay; assay type: cell-based, human
Protocol: as §1, §2

[7] = test system: LNCAP; experiment: Caspase Glo 3/7 assay; assay type: cell-based, human
Protocol: as §1, §2

[8] = test system: SHSY-5Y; experiment: Caspase Glo 3/7 assay; assay type: cell-based, human
Protocol: as §1, §2

[9] = test system: GBM-CSCs; experiment: Caspase Glo 3/7 assay; assay type: cell-based, human
Protocol: as §1, §2

[10] = test system: GSCs; experiment: Caspase Glo 3/7 assay; assay type: cell-based, human
Protocol: as §1, §2

[11] = test system: A549; experiment: Caspase Glo 3/7 assay; assay type: cell-based, human
Protocol: as §1, §2

[12] = test system: K562; experiment: Caspase Glo 3/7 assay; assay type: cell-based, human
Protocol: as §1, §2

[13] = test system: MCF-7; experiment: Caspase Glo 3/7 assay; assay type: cell-based, human
Protocol: as §1, §2

[14] = Renal and liver toxicity, serum biochemistry; assay type: in vivo; conditions: mice; 11 and 18 days after treatment starting
Protocol: Serum for Biochemistry were collected at least 400 μL of blood and putted it in an eppendorf tube with or without (plasma/serum) anticoagulant. The samples were left at environment temperature for at least 30′ minutes, then centrifuged at 500 g for 10 min, the supernatants were collected, being careful not to take the precipitate and analyzed for Biochemical tests. […] (A) Urea; (B) Creatinine; (C) Albumine, (D) AST; aspartate aminotransferase; (E) ALT: alanine aminotransferase. (FIG. 29)

[15] = test system: MCF-7; experiment: MTT cell viability assay; assay type: cell-based, human; conditions: 96 hours, 6 μg/ml
Text: G. Breast cancer cell line (MCF-7); breast cancer cells.

[16] = Tissue distribution by SPR (tumor, liver, kidney); assay type: in vivo, mice
Protocol: Tumor tissues were analyzed after their homogenization in TBST (1 g/2 mL) with an Precellys ysing Kit tubes, ultracentrifugation for 1 h at 110000 g and 1:2 dilution of the supernatant into optimized TBST buffer.
The pharmacokinetic (PK) profile of anti-EPO (C4) was assessed after single i.v. injection in mice models for glioblastoma. In particular, the antibody concentrations were measured at different time points after treatment (from 6 hours to 1 week) in:
1) plasma, to determine the main PK parameters (mainly half-time of elimination and volume of distribution); 2) tumor, to assess the antibody presence in the target tissue; 3) in kidney and liver to evaluate the elimination route.
When tumor masses reached about 500 mg, animals were treated i.v. with 10 mg/kg of anti-EPO (C4) antibody. Blood samples were collected from the retroorbital plexus under isoflurane anesthesia at 4, 24, 48, 72, 120, and 168 h from treatment (FIG. 26B). Mice were sacrificed by cervical dislocation. Tumors were collected. To obtain plasma, blood samples were centrifuged at 4000 rpm for 10 min at 4° C. All samples were immediately frozen in dry ice and then stored at −20° C. until analysis. Four mice were used at each time point.

[17] = test system: human healthy astrocytes; experiment: MTT cell viability assay; assay type: cell-based; conditions: 96 hours
Text: L. Human healthy Astrocytes is a commercial cell line of human healthy astrocytes

B1: anti-EPO (C4): isolated anti-Erythropoietin monoclonal antibody, VL SEQ ID NO:6, VH SEQ ID NO:14, hybridoma DSM ACC 3370 (antibody, listed as Homo sapiens, V domains shown)
VH: EVKLQESGGGLVQPGGSLKLSCAASGFTFSTYTMSWVRQTPEKRLEWVAYISNGGDRTYYPDTVKGRFTISRDDAKNTLFLQMSSLKSEDTAMYYCARHNITTVPFTMDYWGQGTSVTVSS
VL: DIVLTQSPASLAVSLGQRATISCRASESVDYYGTGLMQWYQQRPGQPPKLLIYGASNVGSGVPARFSGSGSGTDFSLNIHPVEGDDIAMYFCQQTRKVPSTFGGGTKLEIK
modifications: VH amino acid sequence; VL amino acid sequence
kd [1]: 0.000669 s⁻¹ | Kd ([1]; rounded): 1000 nM | decrease of total length of formed tubes [2]: 65% | formation of tubular-like structures [2]: able to block the formation of tubular-like structures | cells initially plated dead [3]: 63% | cells initially seeded dead [4]: ~79% | increment of apoptosis (caspase 3/7 activation) [5]: 220% | increment of apoptosis (caspase 3/7 activation) [6]: 243% | increment of apoptosis (caspase 3/7 activation) [7]: 220% | increment of apoptosis (caspase 3/7 activation) [8]: 200% | increment of apoptosis (caspase 3/7 activation) [9]: 210% | increment of apoptosis (caspase 3/7 activation) [10]: 200% | increment of apoptosis (caspase 3/7 activation) [11]: 200% | increment of apoptosis (caspase 3/7 activation) [12]: 180% | increment of apoptosis (caspase 3/7 activation) [13]: 218% | serum biochemistry (urea, creatinine, albumine, AST, ALT) [14]: no significant variations | cells initially plated dead [15]: 71% | antibody distribution tumor vs kidney and liver ([16]; i.v. 10 mg/Kg, SPR): higher levels of antibody in the tumoral tissues respect to kidney and liver | antibody levels in tumor tissues, PK profile ([16]; tumor, i.v. 10 mg/kg): levels were measurable, with a bell-shaped PK profile | effect on human healthy astrocyte viability [17]: did not affected human healthy astrocyte viability
